# Measurements: patent publication US20130225479A1, “Methods and Compositions for Treating Inflammation” (The University of North Carolina at Chapel Hill, priority 2010, published 2013)
# T1: human NLRP1 (full-length) (human, UniProt Q9C000 1-1473, myc or V5 epitope tags in some assays (letters not given, left out); 35S-methionine label in the GST binding assay)
# T1 construct: also called NLRP1-myc; NLRP1-V5
# T1 sequence: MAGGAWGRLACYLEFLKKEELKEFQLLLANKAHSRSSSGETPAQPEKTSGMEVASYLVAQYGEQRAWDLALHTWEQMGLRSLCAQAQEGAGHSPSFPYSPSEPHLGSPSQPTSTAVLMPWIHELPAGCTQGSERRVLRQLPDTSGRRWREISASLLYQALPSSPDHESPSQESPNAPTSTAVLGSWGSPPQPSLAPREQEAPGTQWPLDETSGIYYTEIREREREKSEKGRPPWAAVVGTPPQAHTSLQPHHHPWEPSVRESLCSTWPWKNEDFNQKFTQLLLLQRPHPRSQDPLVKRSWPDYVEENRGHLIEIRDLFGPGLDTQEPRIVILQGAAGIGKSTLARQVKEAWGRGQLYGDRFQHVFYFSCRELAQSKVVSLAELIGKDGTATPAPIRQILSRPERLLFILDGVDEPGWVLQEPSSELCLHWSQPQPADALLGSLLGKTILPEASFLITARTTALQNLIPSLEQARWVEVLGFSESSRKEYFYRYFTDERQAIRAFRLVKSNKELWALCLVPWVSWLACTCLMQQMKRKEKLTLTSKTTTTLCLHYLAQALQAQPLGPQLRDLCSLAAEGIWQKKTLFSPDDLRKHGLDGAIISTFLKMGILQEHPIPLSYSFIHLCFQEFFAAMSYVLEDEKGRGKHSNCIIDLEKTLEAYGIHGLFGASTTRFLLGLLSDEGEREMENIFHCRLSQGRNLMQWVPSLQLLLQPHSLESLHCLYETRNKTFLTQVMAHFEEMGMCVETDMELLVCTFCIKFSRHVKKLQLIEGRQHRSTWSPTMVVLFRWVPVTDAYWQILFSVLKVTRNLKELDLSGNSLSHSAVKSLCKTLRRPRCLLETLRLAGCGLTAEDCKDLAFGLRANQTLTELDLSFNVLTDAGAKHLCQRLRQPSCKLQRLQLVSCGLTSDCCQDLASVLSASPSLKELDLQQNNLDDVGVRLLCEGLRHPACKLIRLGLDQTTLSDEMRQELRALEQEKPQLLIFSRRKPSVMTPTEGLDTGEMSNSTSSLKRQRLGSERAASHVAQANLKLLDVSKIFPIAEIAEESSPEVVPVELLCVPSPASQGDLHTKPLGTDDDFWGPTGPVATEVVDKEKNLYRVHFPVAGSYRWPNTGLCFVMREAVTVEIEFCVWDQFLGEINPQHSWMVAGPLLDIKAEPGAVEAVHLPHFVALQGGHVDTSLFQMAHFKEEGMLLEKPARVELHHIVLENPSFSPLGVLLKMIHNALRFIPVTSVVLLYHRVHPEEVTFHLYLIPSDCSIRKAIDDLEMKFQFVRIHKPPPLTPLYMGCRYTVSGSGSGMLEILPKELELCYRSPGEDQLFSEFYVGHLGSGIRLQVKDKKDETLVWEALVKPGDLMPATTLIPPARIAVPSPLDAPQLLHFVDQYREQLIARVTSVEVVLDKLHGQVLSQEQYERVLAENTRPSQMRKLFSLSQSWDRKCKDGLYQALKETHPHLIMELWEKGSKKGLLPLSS
# T2: NLRP1 (Homo sapiens, UniProt Q9C000)
# T2 construct: host or cells: cell-free coupled transcription/translation
# T2 sequence (Q9C000 1-1473): T1 sequence
# B1: GST-Orf63 (other)
# chain: MDGTDALEKLTKGLSGGGGSLHQTKLLMEFQLRGLPVPALLNSSTTEQFLNTVAQLPTDLSKFIRDYRVFALVRAAYFLEPPSSIDPLEAARALGRLVDILSSQPPQNTAPAQPPTSDDTLNNCTLLKLLAHYADQIAGFKTPALPPVPPGIIGLFTCVEQMYHACFQKYWAAALPPMWILTYDPPTSPLQDWLIVAYGNKEGLLLPSGIPSEEVLAKTLVTEHHELFVSRSNSTETAVTMPVSKERALAIYRVFAKGEVVAENTPILAFTDVELSTLKPHYLFIYDFIIEALCKSYTYSCTQARLESFLSRGIDFMTDLGQYLDTATSGKQQLTHSQIKEIKYRLLSCGLSASACDVFRTVIMTLPYRPTPNLANLSTFMGMVHQLTMFGHYFYRCLGSYSPTGLAFTELQKILTRASAEQTERNPWRHPGISDIPLRWKISRALAFFVPPAPINTLQRVYAALPSQLMRAIFEISVKTTWGGAVPANLARDIDTGPNTQHISSTPPPTLKDVETYCQGLRVGDTEYDEDIVRSPLFADAFTKSHLLPILREVLENRLQKNRALFQIRWLIIFAAEAATGLIPARRPLARAYFHIMDILEERHSQDALYNLLDCIQELFTHIRQAVPDAQCPHAFLQSLFVFQFRPFVLKHQQGVTLFLDGLQTSLPPVISLANLGDKLCRLEFEYDSEGDFVRVPVAPPEQPPHVHLSHFKKTIQTIEQATREATVAMTTIAKPIYPAYIRLLQRLEYLNRLNHHILRIPFPQDALSELQETYLAAFARLTKLAADAANTCSYSLTKYFGVLFQHQLVPTAIVKKLLHFDEAKDTTEAFLQSLAQPVVQGQRQGAAGGSGVLTQKELELLNKINPQFTDAQANIPPSIKRSYSNKYDVPEVSVDWETYSRSAFEAPDDELRFVPLTLAGLRKLFVE
# modifications: N-terminal GST fusion and C-terminal FLAG tag are not carried by the letters
# notes: also called GST-tagged Orf63; purified GST-Orf63 protein; not shown: N-terminal GST of the pGex5p-1 vector with its protease-site linker; C-terminal FLAG tag
# B2: GST-Orf63: purified GST-tagged Orf63 fusion protein (protein)
# chain: B1 chain
# modifications: left off: a dimerising Fc or GST; small tags and cut ends
# notes: purified GST-tagged Orf63 fusion protein
# Legend:
# [1] = target: T1, human NLRP1 (full-length); assay: GST binding assay on glutathione beads with in vitro translated 35S-labeled protein, phosphorimager
# [2] = target: T2, NLRP1; assay: GST binding assay with 35S-methionine-labeled NLRP1; conditions: purified GST-Orf63 on glutathione beads
# Experimental: (§1) In-vitro transcription/translation: [^35S]-methionine (Perkin-Elmer) labeled NLRP1, NLRP3 and control luciferase proteins were prepared using TnT T7 Quick Coupled Transcription/Translation System (Promega) according to manufacturer's instructions. pcDNA3-NLRP1 and pcDNA3-NLRP3 plasmids were used for the transcription/translation reaction.
# (§2) GST binding Assay: Expression and purification of GST fusion proteins were performed as previously described (29) and equal amounts of GST and GST-Orf63 were bound to glutathione beads (29). Equivalent amounts (1×10^5 cpm) of ^35S-methionine labeled NLRP1, NLRP3 and luciferase proteins were incubated with the GST and GST-Orf63 bound protein in NETN+ buffer plus protease inhibitors for an hour at 4° C. NETN+ buffer comprised of 20 mM Tris (pH 7.5), 100 mM NaCl, 1 mM EDTA, 0.1% NP-40, 1 mM DTT. The bound complexes were washed five times (5 minute washes) in NETN+ buffer. The samples were subjected to SDS-PAGE. The gel was fixed, dried and exposed to a phosphoimager.
# [3] = target: T3, NLRP3 (Homo sapiens, UniProt Q96P20); assay: GST binding assay with 35S-methionine-labeled NLRP3; conditions: purified GST-Orf63 on glutathione beads
# T3 construct: primers designed to the open reading frames of procaspase-1, pro-IL-1beta, NOD1, NOD2, and NLRP3; expressed in transfected cells; host or cells: 293T
# Experimental: as §1, §2
# T3 sequence (Q96P20 whole entry): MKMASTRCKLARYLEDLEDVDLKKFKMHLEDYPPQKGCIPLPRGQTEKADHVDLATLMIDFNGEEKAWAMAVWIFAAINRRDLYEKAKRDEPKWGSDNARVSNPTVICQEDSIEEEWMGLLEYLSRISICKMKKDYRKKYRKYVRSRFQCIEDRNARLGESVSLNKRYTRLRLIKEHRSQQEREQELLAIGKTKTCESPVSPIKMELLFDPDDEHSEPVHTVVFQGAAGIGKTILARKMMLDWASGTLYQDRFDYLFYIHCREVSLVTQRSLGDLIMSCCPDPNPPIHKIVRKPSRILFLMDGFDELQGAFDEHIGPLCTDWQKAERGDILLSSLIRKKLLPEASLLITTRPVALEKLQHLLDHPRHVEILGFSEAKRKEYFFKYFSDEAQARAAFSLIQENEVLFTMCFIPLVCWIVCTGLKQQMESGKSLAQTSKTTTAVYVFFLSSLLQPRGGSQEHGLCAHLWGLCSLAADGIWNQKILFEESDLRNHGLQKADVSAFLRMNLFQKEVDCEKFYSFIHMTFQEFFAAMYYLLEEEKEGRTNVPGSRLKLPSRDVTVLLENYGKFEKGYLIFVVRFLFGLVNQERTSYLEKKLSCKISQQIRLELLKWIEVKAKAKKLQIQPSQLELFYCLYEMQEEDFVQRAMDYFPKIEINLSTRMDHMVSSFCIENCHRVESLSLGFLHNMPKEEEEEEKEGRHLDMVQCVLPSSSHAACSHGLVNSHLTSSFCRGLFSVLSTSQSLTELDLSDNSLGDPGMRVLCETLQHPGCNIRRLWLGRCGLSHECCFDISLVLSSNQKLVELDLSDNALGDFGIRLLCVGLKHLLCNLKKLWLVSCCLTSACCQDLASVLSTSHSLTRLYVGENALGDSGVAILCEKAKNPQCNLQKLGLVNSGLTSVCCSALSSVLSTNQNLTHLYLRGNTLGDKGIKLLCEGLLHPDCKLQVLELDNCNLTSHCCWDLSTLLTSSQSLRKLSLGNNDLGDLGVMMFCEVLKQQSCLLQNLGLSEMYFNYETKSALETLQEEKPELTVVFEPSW
Molecule,binding result [1],binding of 35S-methionine-labeled NLRP1 [2],binding of 35S-methionine-labeled NLRP3 [3]
B1,binds,,
B2,,bound,bound
